According to patent publication US20190233508A1 (Eli Lilly, published 2019):

Molecular target: T1, Recombinant human IL-21 protein (25-155) (human, UniProt Q9HBE4 32-162)
T1 construct: also called recombinant IL-21; IL-21 recombinant protein
Assay: Quanterix Simoa sandwich pairing against recombinant IL-21 reference curve (100 ng/mL-1.0 fg/mL)
Experimental: The antibodies of the present invention, AbM2, Ab2-1, and Ab3-1, are conjugated to beads (Quanterix Cat #101360) at 0.5 mg/mL and are biotinylated according to the manufacturer's protocol at a ratio of 40 to 1 biotin to antibody. Nine combinations of the three antibody pairs are generated and analyzed against a recombinant IL-21 reference curve (100 ng/mL-1.0 fg/mL). The beads are diluted in bead diluent (Quanterix, Cat #100458) and the detection antibodies are diluted in sample/detection buffer (Quanterix, Cat #101359). Two pairs of antibodies are moved into further optimization due to the ability to discriminate IL-21 concentrations in the fg/mL range. The first pair is Ab2-1 and AbM2 which perform well in either orientation. The second pair is Ab3-21 as capture and Ab2-1 as detection.

T1 sequence (Q9HBE4 other isoform, or with tags, fused parts or gaps limits assumed): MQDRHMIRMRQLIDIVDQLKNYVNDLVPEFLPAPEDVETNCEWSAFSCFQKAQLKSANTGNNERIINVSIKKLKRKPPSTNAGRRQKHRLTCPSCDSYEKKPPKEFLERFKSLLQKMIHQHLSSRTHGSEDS

Binder | binding result
anti-human IL-21 antibody AbM2 (antibody, V domains shown, In the Simoa assays it is biotinylated (40:1 biotin to antibody)) VH: QVQLVQSGAEVKKPGASVKVSCKASGYTFTDYWMHWVRQAPGQGLEWMGLIDTSDSYTIYNQKFKGRVTMTRDTSTSTVYMELSSLRSEDTAVYYCARYGPLAMDYWGQGTLVTVSS VL: DIQMTQSPSSLSASVGDRVTITCRASQDISNYLNWYQQKPGKAPKLLIYYTSRLHSGVPSRFSGSGSGTDFTLTISSLQPEDFATYYCQQFHTLRTFGGGTKVEIKR | binds
anti-human IL-21 antibody Ab3-1 (antibody, mouse IgG1, kappa, V domains shown, also called Ab34; Ab3-21) VH: QVQLKQSAAELARPGASVKMSCKASGYFFTLYMMHWAKQRPGQNLEWIGYINPSSGYTEYNQKFKDKTTLTADKSSSTAYMQLSSLTSEDSAIYYCLTDFDYWGQGTSLTVSS VL: not shown | binds
